“Also recorded” adds a separate entry of the source.
How the values were obtained:
[1] = Storage stability (OD280, SEC, SDS-PAGE); format: physicochemical
Procedure: Storage stability of F8(scFv)-mIL9-F8(scFv) was assessed by size exclusion chromatography profile and analytical SDS-PAGE analysis of the protein after: a) incubation at 37° C. for 3, 5 and 7 days, b) incubation at 4° C. for 7 days and c) a series of 3 freeze and thaw cycles.

[2] = tested on: Monocrotaline (MCT) induced pulmonary hypertension (PH) in C57BL/6 mice; test: Right heart catheterization in MCT induced PH mouse model (Example 3); format: in vivo
Excerpt: (§1) Pulmonary Hypertension (PH) was induced in C57BL/6 mice (bodyweight: 25-30 g). The animals were obtained from ZET facility (Zentale Experimentelle Tierhaltung) of the University Hospital Jena (UKJ, Jena, Germany). Prior to PH induction, mice were allowed to acclimatize for at least 7 days with ad libitum access to food and water as well as controlled light/dark cycles. As shown in the overview of the experimental design and treatment schedule (FIG. 6), the following experimental groups were investigated: • sham induced controls (n=6) • MCT induced PH (n=8) • MCT induced PH+MACI (n=7) • MCT induced PH+F8(scFv)-mIL9-F8(scFv) (also named F8-IL9) (n=6) • MCT induced PH+KSF(scFv)-mIL9-KSF(scFv) (also named KSF-IL9) (n=6)
For PH induction, the Monocrotaline (MCT) method was used.
The sham induced controls were injected with 30 μl NaCl not containing MCT at day 1 (single dose; intraperitoneally, i.p.). […] The other 4 experimental groups were injected with MCT to induce PH (single dose; intraperitoneally, i.p.; 60 mg/kg body weight; volume 30 μl). Animals in the MCT induced PH+MACI group received the drug (Macitentan) from day 14 to day 28 (once daily; per os; 15 mg/kg body weight). […]
(§2) Statistical analyses were performed using IBM SPSS statistical software, version 25.0 (IBM SPSS Statistics for Windows. Armonk, N.Y., USA). Data are expressed as mean±standard deviation. […]

[3] = tested on: Monocrotaline (MCT) induced pulmonary hypertension (PH) in C57BL/6 mice; test: Echocardiographic assessment in MCT induced PH mouse model (Example 4); format: in vivo; settings: in contrast to KSF containing control immunocytokines
Procedure: To induce Pulmonary Hypertension (PH), C57BL/6 mice (bodyweight: 25-30 g) were used. The animals were obtained from ZET facility (Zentrale Experimentelle Tierhaltung) of the University Hospital Jena (UKJ, Jena, Germany). Prior to PH induction, mice were allowed to acclimatize for at least 7 days with ad libitum access to food and water as well as controlled light/dark cycles. […]
Echocardiographic assessment was performed on day 28 using the Vevo 770 Rodent-Ultrasound-System, Visual Sonic, Canada, 17 MHz probe RMV176. […] Body temperature and respiratory rate were continuously monitored. All surrogate parameters of right ventricular (RV) morphology and function were assessed, among others, RV basal and medial diameters (in mm), RV length (in mm), tricuspid annular plane systolic excursion (TAPSE, in mm), right atrial area (RA area, in mm^2) or main pulmonary artery diameter (MPA, in mm).
as §2

[4] = tested on: Monocrotaline (MCT) induced pulmonary hypertension (PH) in C57BL/6 mice; test: Echocardiographic assessment in MCT induced PH mouse model (Example 3); format: in vivo; settings: in contrast to untargeted KSF(scFv)-mIL9-KSF(scFv)
Excerpt: as §1
For PH induction, the Monocrotaline (MCT) method was used. […]
Echocardiographic assessment was performed on day 28 (FIG. 6) using the Vevo 770 Rodent-Ultrasound-System, Visual Sonic, Canada, 17 MHz probe RMV176. […] Body temperature and respiratory rate were continuously monitored. All surrogate parameters of right ventricular (RV) morphology and function were assessed, among others, RV basal and medial diameters (in mm), RV length (in mm), and RV fractional area change (FAC, in %).
as §2

[5] = tested on: Monocrotaline (MCT) induced pulmonary hypertension (PH) in C57BL/6 mice; test: Right heart catheterization in MCT induced PH mouse model (Example 4); format: in vivo; settings: in contrast to KSF containing control immunocytokines
Excerpt: To induce Pulmonary Hypertension (PH), C57BL/6 mice (bodyweight: 25-30 g) were used. The animals were obtained from ZET facility (Zentrale Experimentelle Tierhaltung) of the University Hospital Jena (UKJ, Jena, Germany). Prior to PH induction, mice were allowed to acclimatize for at least 7 days with ad libitum access to food and water as well as controlled light/dark cycles. In this set of experiments, 50 animals were investigated divided into the following 7 experimental groups: • sham induced controls (n=10) • MCT induced PH (n=8) • MCT induced PH+MACI (n=8) • MCT induced PH+F8mIL9F8 in CrAb format (n=6) • MCT induced PH+KSFmIL9KSF in CrAb format (n=6) • MCT induced PH+F8_(IgG-HC4)-mIL9 (n=6) • MCT induced PH+KSF_(IgG-HC4)-mIL9 (n=6)
For PH induction, the Monocrotaline (MCT, Carl Roth, Germany) method was used.
The sham induced controls were injected with 30 μl NaCl not containing MCT at day 1 (single dose; intraperitoneally, i.p.). […] The other 6 experimental groups were injected with MCT (single dose; intraperitoneally, i.p.; 60 mg/kg body weight; volume 30 μl). Animals in the MCT induced PH+MACI group received the drug (Macitentan, Actelion Pharmaceuticals Ltd.) from day 14 to day 28 (once daily; per os; 15 mg/kg body weight).
Animals in the MCT induced PH+F8mIL9F8 in CrAb format group received F8mIL9F8 3 times on days 14, 16 and 18 (intravenously, i.v.; 200 μg/injection; volume 154 μl). Animals in the MCT induced PH+KSFmIL9KSF in CrAb format group received KSFmIL9KSF 3 times on days 14, 16 and 18 (intravenously, i.v.; 198 μg/injection; volume 182 μl).
Animals in the MCT induced PH+F8_(IgG-HC4)-mIL9 group received F8_(IgG-HC4)-mIL9 3 times on days 14, 16 and 18 (intravenously, i.v.; 261 μg/injection; volume 137 μl). Animals in the MCT induced PH+KSF_(IgG-HC4)-mIL9 group received KSF_IgG-HC4mIL9 3 times on days 14, 16 and 18 (intravenously, i.v.; 258 μg/injection; volume 161 μl).
On day 28 after MCT injection, mice of all experimental groups were deeply anesthetized with a single dose of 100 mg/kg body weight ketamine and 10 mg/kg body weight Xylazin in approximately 60 μl each administered i.p.
Right heart catheterization using a 1.4 F micro conductance pressure-volume catheter (Model SPR-839; Millar Instruments Inc; PowerLab system, ADInstruments Ltd., Oxford, UK) was performed via the right vena jugularis interna to measure the systolic right ventricular pressure and thereby verify the success of the experimental setting. Mice were then sacrificed in deep anesthesia and analgesia to carry out cardiac blood collection after thoracotomy and to harvest the organs.
as §2

[6] = target: T1, recombinant fibronectin 11A12 domain (EDA) (Homo sapiens, UniProt P02751); test: Biacore surface plasmon resonance binding analysis; settings: SPR, BIAcore X100, CM5 chip coated with recombinant fibronectin 11A12 domain
T1 construct: recombinant fibronectin 11A12 domain
Procedure: Binding affinity was determined by surface plasmon resonance using a BIAcore X100 instrument using a CM5 chip coated with recombinant fibronectin 11A12 domain. Samples were injected as serial-dilution, using a concentration range from […] to 125 nM.

[7] = Melting temperature (Protein Thermal Shift kit); format: physicochemical
Procedure: The melting temperature of the different mIL9 conjugates was determined using a StepOne real-Time PCR system in combination with the Protein Thermal Shift kit.

T1 sequence (P02751 1629-1905 limits assumed): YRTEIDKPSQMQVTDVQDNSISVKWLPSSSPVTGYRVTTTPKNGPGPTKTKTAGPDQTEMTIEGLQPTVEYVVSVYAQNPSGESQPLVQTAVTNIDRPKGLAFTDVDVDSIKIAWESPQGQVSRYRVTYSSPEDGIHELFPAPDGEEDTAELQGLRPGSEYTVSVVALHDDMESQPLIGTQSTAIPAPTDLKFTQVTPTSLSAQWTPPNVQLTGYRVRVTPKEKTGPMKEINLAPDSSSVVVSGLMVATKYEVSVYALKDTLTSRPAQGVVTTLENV

B1: F8(scFv)-mIL9-F8(scFv): murine IL9 conjugated at N- and C-terminus to an F8 scFv via 10 amino acid linker, CrAb format; SEQ ID NO: 17 (protein)
chain: EVQLLESGGGLVQPGGSLRLSCAASGFTFSLFTMSWVRQAPGKGLEWVSAISGSGGSTYYADSVKGRFTISRDNSKNTLYLQMNSLRAEDTAVYYCAKSTHLYLFDYWGQGTLVTVSSGGGGSGGGGSGGGGEIVLTQSPGTLSLSPGERATLSCRASQSVSMPFLAWYQQKPGQAPRLLIYGASSRATGIPDRFSGSGSGTDFTLTISRLEPEDFAVYYCQQMRGRPPTFGQGTKVEIKSGGSGSGGGGQRCSTTWGIRDTNYLIENLKDDPPSKCSCSGNVTSCLCLSVPTDDCTTPCYREGLLQLTNATQKSRLLPVFHRVKRIVEVLKNITCPSFSCEKPCNQTMAGNTLSFLKSLLGTFQKTEMQRQKSRPSGGSGSGGGGEVQLLESGGGLVQPGGSLRLSCAASGFTFSLFTMSWVRQAPGKGLEWVSAISGSGGSTYYADSVKGRFTISRDNSKNTLYLQMNSLRAEDTAVYYCAKSTHLYLFDYWGQGTLVTVSSGGGGSGGGGSGGGGEIVLTQSPGTLSLSPGERATLSCRASQSVSMPFLAWYQQKPGQAPRLLIYGASSRATGIPDRFSGSGSGTDFTLTISRLEPEDFAVYYCQQMRGRPPTFGQGTKVEIK
modifications: F8(scFv)-mIL9-F8(scFv) (“CrAb” format)
stability to freeze and thawing (protein concentration, SEC profile, SDS-PAGE) ([1]; 3 cycles of freeze and thawing): no loss of concentration, no changes in the size exclusion profile or SDS-PAGE analysis; also recorded: no loss of concentration
thermal stability over time (protein concentration, SEC profile, SDS-PAGE) ([1]; incubated at 4° for up to 7 days): no loss of concentration, no changes in the size exclusion profile or SDS-PAGE analysis; also recorded: no loss of concentration
thermal stability over time (protein concentration, SEC profile, SDS-PAGE) ([1]; incubated at 37° C. for up to 7 days): no loss of concentration, no changes in the size exclusion profile or SDS-PAGE analysis; also recorded: no loss of concentration
treatment effects relative to MACI (result in words) ([2]; MACI 15 mg/kg per os once daily day 14 to 28): at least comparable
pressure values in the right ventricle (result in words) ([2]; in contrast to untargeted KSF(scFv)-mIL9-KSF(scFv), 200 μg/injection i.v. days 14, 16, 18): significantly reduce
echocardiographic signs of right ventricular load and dysfunction (result in words) [3]: significantly improved a variety
echocardiographic signs of right ventricular load and dysfunction (result in words) [4]: significantly improved the majority
pressure values in the right ventricle, RVPsys (result in words) [5]: significantly reduced
apparent KD [6]: in the nM range
increase in melting temperature compared with diabody formats F8(db)-mIL9 and mIL9-F8(db) [7]: ~3 °C
